Experiments:
[1] = target: MA-SP1.FP: uncleaved MA-CA-SP1 Gag derivative carrying eCFP or eYFP, in HIV^eCFP/eYFP particles of the MA-SP1 cleavage site variant (HIV-1 NL4-3); experiment: FRET or BRET; stopped-flow; dual-labeled particles mixed with 0.05% TX-100 in PBS at 25°C, excitation 436 nm, long pass filter 515 nm; five to six traces averaged; single or double exponential fits of the FRET decay
[2] = target: MA-SP1.FP: uncleaved MA-CA-SP1 Gag derivative carrying eCFP or eYFP, in HIV^eCFP/eYFP particles of the MA-SP1 cleavage site variant (HIV-1 NL4-3); experiment: FRET or BRET; cuvette-based; dual-labeled particles in PBS at 25°C, 0.05% TX-100 added at t = 0 to strip the lipid envelope; emission at 528 nm (excitation 433 nm) followed at 1 s resolution, or spectra after 15 min; normalized to the signal before detergent
[3] = target: Gag.FP: unprocessed HIV-1 Gag polyprotein carrying eCFP or eYFP between MA and CA, in immature HIV^eCFP/eYFP particles (HIV-1 NL4-3); experiment: FRET or BRET; stopped-flow; dual-labeled particles mixed with 0.05% TX-100 in PBS at 25°C, excitation 436 nm, long pass filter 515 nm; five to six traces averaged; single or double exponential fits of the FRET decay
[4] = target: MA.FP: HIV-1 matrix protein (MA) carrying eCFP or eYFP, in mature HIV^eCFP/eYFP particles (HIV-1 NL4-3); experiment: as above
[5] = target: MA-CA.FP: uncleaved MA-CA Gag derivative carrying eCFP or eYFP, in HIV^eCFP/eYFP particles of the MA-CA cleavage site variant (HIV-1 NL4-3); experiment: as above

For “MA-SP1.FP: uncleaved MA-CA-SP1 Gag derivative carrying eCFP or eYFP, in HIV^eCFP/eYFP particles of the MA-SP1 cleavage site variant (domain or fragment)”, the k1, rate constant of FRET decay (fast phase, double exponential) [1] was 0.129 s⁻¹, the k2, rate constant of FRET decay (slow phase, double exponential) [1] was 0.0078 s⁻¹ and the plateau of the FRET signal after detergent, % of the initial value [2] was 75%.
“Gag.FP: unprocessed HIV-1 Gag polyprotein carrying eCFP or eYFP between MA and CA, in immature HIV^eCFP/eYFP particles (natural protein)” gave a k1, rate constant of FRET decay (single exponential) [3] of 0.018 s⁻¹.
“MA.FP: HIV-1 matrix protein (MA) carrying eCFP or eYFP, in mature HIV^eCFP/eYFP particles (natural protein)” gave a k1, rate constant of FRET decay (single exponential) [4] of 0.099 s⁻¹.
Substance “MA-CA.FP: uncleaved MA-CA Gag derivative carrying eCFP or eYFP, in HIV^eCFP/eYFP particles of the MA-CA cleavage site variant (domain or fragment)” has a k1, rate constant of FRET decay (fast phase, double exponential) [5] of 0.127 s⁻¹ and a k2, rate constant of FRET decay (slow phase, double exponential) [5] of 0.0082 s⁻¹.
